The target in one assay is T1, His-DBC1 (human, UniProt Q8N163 1-923).
T1 construct: Deleted in Breast Cancer 1 (DBC1, CCAR2), human, bacterially expressed as His-DBC1; also called His-tagged DBC1; source: E. coli BL21, purified
The assay is described as follows: pull-down; GST-SIAH2 and His-DBC1 proteins generated in E. coli, incubated in vitro overnight, then GST beads for 2 h at 4 °C. Conditions: both partners purified.

For assay [1], the target named is T2, N-terminal half of His-DBC1 (1-461) (human, UniProt Q8N163 1-461).
T2 construct: source: E. coli, bacterially expressed
Described as above. Conditions: both partners purified.

T1 sequence (Q8N163 whole entry): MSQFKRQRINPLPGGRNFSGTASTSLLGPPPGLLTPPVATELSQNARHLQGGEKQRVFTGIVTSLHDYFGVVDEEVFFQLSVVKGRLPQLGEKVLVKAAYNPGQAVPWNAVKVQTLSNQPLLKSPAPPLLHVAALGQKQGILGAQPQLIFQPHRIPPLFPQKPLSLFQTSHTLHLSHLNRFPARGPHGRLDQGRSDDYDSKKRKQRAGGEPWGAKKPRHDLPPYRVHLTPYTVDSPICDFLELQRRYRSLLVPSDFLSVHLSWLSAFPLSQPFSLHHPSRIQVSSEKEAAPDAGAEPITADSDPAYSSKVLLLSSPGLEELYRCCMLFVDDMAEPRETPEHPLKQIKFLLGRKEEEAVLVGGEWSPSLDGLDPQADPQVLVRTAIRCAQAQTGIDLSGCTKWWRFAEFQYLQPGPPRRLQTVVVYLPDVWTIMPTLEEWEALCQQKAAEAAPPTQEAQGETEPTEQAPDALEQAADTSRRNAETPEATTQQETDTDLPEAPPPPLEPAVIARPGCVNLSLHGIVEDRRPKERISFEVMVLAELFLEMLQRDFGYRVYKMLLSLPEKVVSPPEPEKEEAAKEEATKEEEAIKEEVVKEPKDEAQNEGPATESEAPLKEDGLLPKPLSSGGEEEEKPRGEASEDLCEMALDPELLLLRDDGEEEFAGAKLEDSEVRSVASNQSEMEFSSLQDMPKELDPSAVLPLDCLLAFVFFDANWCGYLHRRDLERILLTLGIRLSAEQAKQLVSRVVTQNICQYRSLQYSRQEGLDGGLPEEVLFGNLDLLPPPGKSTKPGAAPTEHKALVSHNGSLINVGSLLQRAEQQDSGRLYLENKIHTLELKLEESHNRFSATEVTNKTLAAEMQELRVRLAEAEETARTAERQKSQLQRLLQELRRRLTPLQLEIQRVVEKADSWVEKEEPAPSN
T2 sequence (Q8N163 1-461): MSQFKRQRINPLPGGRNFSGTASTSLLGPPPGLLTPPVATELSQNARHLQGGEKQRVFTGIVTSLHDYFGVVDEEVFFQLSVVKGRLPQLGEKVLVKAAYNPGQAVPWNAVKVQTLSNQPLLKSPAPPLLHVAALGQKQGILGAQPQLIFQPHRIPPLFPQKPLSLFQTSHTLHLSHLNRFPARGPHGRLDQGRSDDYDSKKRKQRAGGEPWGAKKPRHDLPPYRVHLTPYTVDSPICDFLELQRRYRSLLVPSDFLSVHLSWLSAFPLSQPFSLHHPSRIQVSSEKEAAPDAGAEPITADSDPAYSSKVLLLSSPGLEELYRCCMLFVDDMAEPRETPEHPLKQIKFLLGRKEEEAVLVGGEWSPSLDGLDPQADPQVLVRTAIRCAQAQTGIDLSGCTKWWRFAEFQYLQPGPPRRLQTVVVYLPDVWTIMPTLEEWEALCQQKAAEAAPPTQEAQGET

B1: GST-SIAH2 (enzyme, human, UniProt O43255 1-324, looked up)
chain: MSRPSSTGPSANKPCSKQPPPQPQHTPSPAAPPAAATISAAGPGSSAVPAAAAVISGPGGGGGAGPVSPQHHELTSLFECPVCFDYVLPPILQCQAGHLVCNQCRQKLSCCPTCRGALTPSIRNLAMEKVASAVLFPCKYATTGCSLTLHHTEKPEHEDICEYRPYSCPCPGASCKWQGSLEAVMSHLMHAHKSITTLQGEDIVFLATDINLPGAVDWVMMQSCFGHHFMLVLEKQEKYEGHQQFFAIVLLIGTRKQAENFAYRLELNGNRRRLTWEATPRSIHDGVAAAIMNSDCLVFDTAIAHLFADNGNLGINVTISTCCP
notes: E3 ubiquitin ligase SIAH2, human, bacterially expressed as GST-SIAH2; also called purified glutathione S-transferase (GST) SIAH2; source: E. coli BL21, purified
With B1, the binding result (with His-DBC1; in assay [1]) was “binds” each time.

These data come from article doi:10.1101/2022.01.11.475808, “Hypoxia Dynamically Regulates DBC1 Ubiquitination and Stability by SIAH2 and OTUD5 in Breast Cancer Progression” (bioRxiv, 2022).
